Test [1] deals with BIR3RING (human) (UniProt P98170). In words: fluorescence polarization; 20 nM rhodamine-SMAC, BIR3RING titrated. (Polarisation of emitted light reports the rotation of a fluorescent probe.)
For test [2], the target named is GST-BIR2 (glutathione-S-transferase-BIR2 fusion protein) (human) (UniProt P98170). In words: fluorescence polarization; 20 nM rhodamine-SMAC, GST-BIR2 from 0 to 495 nM.
Test [3] deals with GST-XIAP (human, UniProt P98170 1-497). In words: cell-based or functional assay.
Sequence of GST-XIAP (P98170 whole entry): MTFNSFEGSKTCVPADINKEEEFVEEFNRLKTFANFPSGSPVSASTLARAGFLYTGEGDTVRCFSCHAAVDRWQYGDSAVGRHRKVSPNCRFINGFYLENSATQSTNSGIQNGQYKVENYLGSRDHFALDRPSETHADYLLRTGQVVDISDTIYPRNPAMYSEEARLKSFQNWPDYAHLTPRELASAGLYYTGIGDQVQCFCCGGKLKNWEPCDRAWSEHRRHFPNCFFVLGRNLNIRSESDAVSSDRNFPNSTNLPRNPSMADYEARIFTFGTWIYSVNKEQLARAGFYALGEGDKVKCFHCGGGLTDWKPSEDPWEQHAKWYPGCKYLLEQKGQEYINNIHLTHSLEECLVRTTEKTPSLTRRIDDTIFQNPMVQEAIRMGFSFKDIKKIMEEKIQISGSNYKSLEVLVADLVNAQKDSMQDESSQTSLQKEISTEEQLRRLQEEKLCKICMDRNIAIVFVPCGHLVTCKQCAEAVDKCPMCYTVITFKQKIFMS

Where no end group is shown, it is not given here. [ ]: non-standard residue; d: D form. 2Nal = N[C@@H](Cc1ccc2ccccc2c1)C(=O)O; d2Nal = N[C@H](Cc1ccc2ccccc2c1)C(=O)O; 2Thi = N[C@@H](Cc1cccs1)C(=O)O; Cha = N[C@@H](CC1CCCCC1)C(=O)O; d2Thi = N[C@H](Cc1cccs1)C(=O)O; dCha = N[C@H](CC1CCCCC1)C(=O)O

Sequence of BIR3RING (human) (P98170 243-497 limits assumed): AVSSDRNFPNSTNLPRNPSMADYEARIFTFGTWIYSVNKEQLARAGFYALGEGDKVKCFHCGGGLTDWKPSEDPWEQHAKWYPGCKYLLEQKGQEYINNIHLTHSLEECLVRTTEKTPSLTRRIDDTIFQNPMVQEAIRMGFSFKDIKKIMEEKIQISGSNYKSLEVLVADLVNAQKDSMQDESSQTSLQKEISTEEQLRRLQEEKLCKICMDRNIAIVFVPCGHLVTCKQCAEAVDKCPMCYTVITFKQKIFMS
Sequence of GST-BIR2 (glutathione-S-transferase-BIR2 fusion protein) (human) (P98170 124-240): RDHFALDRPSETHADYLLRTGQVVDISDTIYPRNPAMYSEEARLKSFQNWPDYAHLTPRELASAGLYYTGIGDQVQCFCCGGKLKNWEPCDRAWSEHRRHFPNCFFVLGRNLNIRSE

Take “rhodamine labeled SMAC (rhodamine-SMAC) of Example VII (peptide)”: the Kd (commonly the constant that tells how readily two partners part at equilibrium) in test [1] came to 80 nM; in test [2] it was 100 nM.

B1: TPI 1352-6 (peptide)
peptide: A[dW]W[2Thi]
With B1, the “ratio of Vmax for hydrolysis of Ac-DEVD-AFC with and without the peptide (caspase-3 + XIAP)” value in test [3] is greater than 2.4.

B2: TPI 1332-1 / TPI 1352-1 (peptide)
peptide: AWW[2Thi]
modifications: also: Trp of TPI 1332 batch may retain formyl groups
As to B2, the “ratio of Vmax for hydrolysis of Ac-DEVD-AFC with and without the peptide (caspase-3 + XIAP)” value in test [3] is greater than 2.4.

B3: TPI 1332-47 / TPI 1352-47 (peptide)
peptide: A[dW]W[2Thi]
modifications: also: Trp of TPI 1332 batch may retain formyl groups
As for B3, the “ratio of Vmax for hydrolysis of Ac-DEVD-AFC with and without the peptide (caspase-3 + XIAP)” value in test [3] is greater than 2.4.

B4: TPI 1352-66 (peptide)
peptide: [2Nal][dCha]W[dW]
As for B4, the “ratio of Vmax for hydrolysis of Ac-DEVD-AFC with and without the peptide (caspase-3 + XIAP)” value in test [3] is greater than 2.4.

B5: TPI 1352-72 (peptide)
peptide: [2Nal][d2Thi][dF][dW]
Take B5: in test [3], the “ratio of Vmax for hydrolysis of Ac-DEVD-AFC with and without the peptide (caspase-3 + XIAP)” value is greater than 2.4.

B6: TPI 1332-41 (peptide)
peptide: [Cha][d2Nal]W[2Thi]
modifications: also: Trp may retain a formyl group
For the molecule B6, the “ratio of Vmax for hydrolysis of Ac-DEVD-AFC with and without the peptide (caspase-3 + XIAP)” value in test [3] is greater than 2.4.

The values are drawn from patent publication US20050119176A1 (BURNHAM INSTITUTE, published 2005).
